What was measured:
[1] = tested on: primary human unstimulated T cells; test: CRISPR knock-out target validation in T cells stimulated with anti-CD3 and peptide; type: cell-based; settings: targets identified from mass spectrometry
Protocol: Functional validation was performed by CRISPR knock-out to confirm target effects on SG-3-0020-mediated activity. […] RNPs were introduced into primary human unstimulated T cells via Nucleofection and cells were cultured for 96 hours. OR1A1 served as negative control and CD3E was used as positive control. Post knock-down T cells were stimulated in vitro culture of Purified T cells with anti-CD3 (0.1 μg/mL) and SG-3-05429 (mutant SG-3-0020 with improved activity) (10 μM) and was incubated for 48 hours. A decrease in IFN-γ secretion (FIG. 17A) and a decrease in activated CD4 and CD8 T cell subsets was also observed (CD25+, PD-1+=Markers of T cell activation) (FIG. 17B) was observed after target knock-down compared to the negative control (OR1A1). […] Activation of CD2 has the potential to be a therapeutic opportunity.

Protein AMBP = test: Pull-down and mass spectrometry target capture; type: binding, human; settings: 100.0 = no target protein observed in the control pulldown
Protocol: (§1) To identify binding partners of SG-3-0020 in human cells, pull-down and mass spectrometry analysis were used (FIG. 15). Multiple target capture experiments were performed with SG-3-0020 and controls. Binding conditions and cross-linkers were varied to achieve maximum enrichment of peptide over controls. Nine putative binding partners to SG-3-0020 were identified using MS and were nominated for confirmation using CRISPR Knock Out (KO) Experiments (Table 12, FIG. 16). The enrichment ratio was calculated as described below: […]

[2] = tested on: naïve CD4+ and CD8+ T cells (Th0); settings: incubation of a naïve T cell with the polypeptide; cited from earlier work
[3] = biological target: T1, Tumor necrosis factor receptor superfamily member 4 (Homo sapiens, UniProt P43489); test: Pull-down and mass spectrometry target capture; type: binding; settings: 100.0 = no target protein observed in the control pulldown
T1 construct: endogenous in cells
T1 sequence (P43489 29-277): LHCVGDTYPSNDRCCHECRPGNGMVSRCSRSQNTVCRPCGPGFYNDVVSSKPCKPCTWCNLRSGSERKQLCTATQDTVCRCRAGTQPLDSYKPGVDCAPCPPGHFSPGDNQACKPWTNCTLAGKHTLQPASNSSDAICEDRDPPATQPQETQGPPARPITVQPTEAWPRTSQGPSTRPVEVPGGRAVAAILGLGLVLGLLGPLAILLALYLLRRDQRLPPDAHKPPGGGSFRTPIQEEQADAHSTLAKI
Protocol: as §1

[4] = biological target: T2, CD2 (cluster of differentiation 2) (Homo sapiens, UniProt P06729); test: Pull-down and mass spectrometry target capture; type: binding; settings: 100.0 = no target protein observed in the control pulldown
T2 construct: endogenous in cells
T2 sequence (P06729 25-351): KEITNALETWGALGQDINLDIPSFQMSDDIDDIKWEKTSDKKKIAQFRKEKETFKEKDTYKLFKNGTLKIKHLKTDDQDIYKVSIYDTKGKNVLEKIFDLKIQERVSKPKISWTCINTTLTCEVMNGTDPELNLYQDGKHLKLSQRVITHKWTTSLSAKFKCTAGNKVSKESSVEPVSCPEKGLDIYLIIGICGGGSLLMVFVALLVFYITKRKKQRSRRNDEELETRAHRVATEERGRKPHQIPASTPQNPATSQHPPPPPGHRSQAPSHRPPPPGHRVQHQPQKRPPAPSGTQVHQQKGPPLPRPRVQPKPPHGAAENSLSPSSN
Protocol: as §1

Prohibitin = biological target: T3, Prohibitin (Homo sapiens, UniProt P35232); test: Pull-down and mass spectrometry target capture; type: binding; settings: 100.0 = no target protein observed in the control pulldown
T3 construct: endogenous in cells
T3 sequence (P35232 1-272): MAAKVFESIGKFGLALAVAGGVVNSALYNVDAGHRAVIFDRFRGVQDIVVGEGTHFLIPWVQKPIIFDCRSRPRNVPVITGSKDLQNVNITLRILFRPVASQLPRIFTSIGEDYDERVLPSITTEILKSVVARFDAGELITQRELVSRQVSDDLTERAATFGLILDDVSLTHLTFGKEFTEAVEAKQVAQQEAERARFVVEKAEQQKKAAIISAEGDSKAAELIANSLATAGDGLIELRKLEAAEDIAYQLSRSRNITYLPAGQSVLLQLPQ
Protocol: as §1

Tumor necrosis factor = Tumor necrosis factor (Homo sapiens, UniProt P01375); test: Pull-down and mass spectrometry target capture; type: binding; parameters: endogenous in cells; settings: 100.0 = no target protein observed in the control pulldown
Protocol: as §1

[5] = biological target: Cation-independent mannose-6-phosphate receptor (Homo sapiens, UniProt P11717); test: Pull-down and mass spectrometry target capture; type: binding; parameters: endogenous in cells; settings: 100.0 = no target protein observed in the control pulldown
Protocol: as §1

[6] = biological target: Low-density lipoprotein receptor (Homo sapiens, UniProt P01130); test: Pull-down and mass spectrometry target capture; type: binding; parameters: endogenous in cells; settings: 100.0 = no target protein observed in the control pulldown
Protocol: as §1

[7] = biological target: Bone marrow stromal antigen 2 (Homo sapiens, UniProt Q10589); test: Pull-down and mass spectrometry target capture; type: binding; parameters: endogenous in cells; settings: 100.0 = no target protein observed in the control pulldown
Protocol: as §1

Teneurin-3 = Teneurin-3 (Homo sapiens, UniProt Q9P273); test: Pull-down and mass spectrometry target capture; type: binding; parameters: endogenous in cells; settings: 100.0 = no target protein observed in the control pulldown
Protocol: as §1

CXCR3 [8] = biological target: T4, CXCR3 (human, UniProt P49682 1-368); test: CXCR3 activity assay with ligand, with SG-3-00802 or SG-3-05021 added
T4 construct: whole, on cells; The reporter constructs are not described; also called CSCR3
T4 sequence (looked up): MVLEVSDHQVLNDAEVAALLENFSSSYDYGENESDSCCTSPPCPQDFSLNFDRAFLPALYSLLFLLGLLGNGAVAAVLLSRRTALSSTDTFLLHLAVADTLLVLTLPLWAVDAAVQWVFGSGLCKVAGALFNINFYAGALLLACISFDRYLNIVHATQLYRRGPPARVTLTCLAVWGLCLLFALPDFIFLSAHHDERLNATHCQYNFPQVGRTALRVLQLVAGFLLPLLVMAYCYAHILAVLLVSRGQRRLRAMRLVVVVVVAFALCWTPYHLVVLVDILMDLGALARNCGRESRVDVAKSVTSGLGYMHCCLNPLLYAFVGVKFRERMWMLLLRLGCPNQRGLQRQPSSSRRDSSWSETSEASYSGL

CCR9 = biological target: T5, CCR9 (human, UniProt P51686 1-369, limits assumed); test: cell-based or functional assay
T5 sequence (looked up): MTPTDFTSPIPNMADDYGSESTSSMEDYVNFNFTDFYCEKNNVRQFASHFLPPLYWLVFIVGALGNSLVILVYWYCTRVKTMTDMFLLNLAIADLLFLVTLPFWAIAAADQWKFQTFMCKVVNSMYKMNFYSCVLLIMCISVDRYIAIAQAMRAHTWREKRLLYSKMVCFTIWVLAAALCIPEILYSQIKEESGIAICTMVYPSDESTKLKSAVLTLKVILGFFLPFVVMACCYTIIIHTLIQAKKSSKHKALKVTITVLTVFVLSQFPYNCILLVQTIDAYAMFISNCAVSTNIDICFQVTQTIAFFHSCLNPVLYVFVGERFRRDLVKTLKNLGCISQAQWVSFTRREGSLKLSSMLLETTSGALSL

TSHR(L) = TSHR(L) (human, UniProt P16473-1 21-764, limits assumed); test: cell-based or functional assay
MRGPRX2 = biological target: T6, MRGPRX2 (human, UniProt Q96LB1 1-330); test: cell-based or functional assay
T6 sequence (looked up): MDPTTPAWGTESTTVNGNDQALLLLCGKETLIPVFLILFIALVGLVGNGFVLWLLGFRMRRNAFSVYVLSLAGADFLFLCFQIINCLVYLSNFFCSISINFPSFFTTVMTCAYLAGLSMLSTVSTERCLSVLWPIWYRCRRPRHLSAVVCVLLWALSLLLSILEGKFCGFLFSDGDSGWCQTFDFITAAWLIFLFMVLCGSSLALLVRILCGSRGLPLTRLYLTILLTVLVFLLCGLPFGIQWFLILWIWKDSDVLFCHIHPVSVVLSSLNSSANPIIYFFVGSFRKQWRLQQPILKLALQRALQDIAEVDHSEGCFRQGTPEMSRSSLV

CHRM5 = biological target: T7, CHRM5 (human, UniProt P08912 1-532); test: cell-based or functional assay
T7 sequence (looked up): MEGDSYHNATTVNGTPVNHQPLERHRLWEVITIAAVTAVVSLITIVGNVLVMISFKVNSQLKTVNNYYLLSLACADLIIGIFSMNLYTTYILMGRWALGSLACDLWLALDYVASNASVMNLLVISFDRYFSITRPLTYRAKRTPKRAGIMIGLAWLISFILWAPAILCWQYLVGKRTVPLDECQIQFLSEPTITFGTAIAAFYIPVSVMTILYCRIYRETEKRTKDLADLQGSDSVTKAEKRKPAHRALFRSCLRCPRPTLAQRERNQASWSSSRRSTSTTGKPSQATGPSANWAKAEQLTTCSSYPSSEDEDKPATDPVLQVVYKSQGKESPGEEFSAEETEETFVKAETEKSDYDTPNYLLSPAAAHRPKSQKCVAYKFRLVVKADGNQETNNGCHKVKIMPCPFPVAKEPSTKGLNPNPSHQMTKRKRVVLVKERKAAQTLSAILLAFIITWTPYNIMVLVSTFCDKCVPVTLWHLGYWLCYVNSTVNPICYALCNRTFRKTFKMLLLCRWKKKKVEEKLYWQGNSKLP

HCRTR2 = biological target: T8, HCRTR2 (human, UniProt O43614 1-444); test: cell-based or functional assay
T8 sequence (looked up): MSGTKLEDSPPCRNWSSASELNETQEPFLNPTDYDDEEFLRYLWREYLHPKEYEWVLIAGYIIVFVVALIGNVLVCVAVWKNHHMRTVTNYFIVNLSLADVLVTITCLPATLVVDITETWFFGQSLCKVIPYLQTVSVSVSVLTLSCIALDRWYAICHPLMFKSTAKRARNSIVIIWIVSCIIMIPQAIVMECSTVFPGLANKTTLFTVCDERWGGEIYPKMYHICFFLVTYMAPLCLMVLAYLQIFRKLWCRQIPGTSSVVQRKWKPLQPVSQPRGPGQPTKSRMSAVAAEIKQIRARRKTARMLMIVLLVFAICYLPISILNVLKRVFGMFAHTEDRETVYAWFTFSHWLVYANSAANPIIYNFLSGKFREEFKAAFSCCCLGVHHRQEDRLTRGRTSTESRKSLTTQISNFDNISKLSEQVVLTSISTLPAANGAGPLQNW

CXCR4 = CXCR4 (human, UniProt P61073 1-352); test: cell-based or functional assay
CXCR3 [9] = biological target: T4, CXCR3; test: cell-based or functional assay
SSTR1 = SSTR1 (human, UniProt P30872 1-391); test: cell-based or functional assay
Chain of SSTR1 (P30872 whole entry): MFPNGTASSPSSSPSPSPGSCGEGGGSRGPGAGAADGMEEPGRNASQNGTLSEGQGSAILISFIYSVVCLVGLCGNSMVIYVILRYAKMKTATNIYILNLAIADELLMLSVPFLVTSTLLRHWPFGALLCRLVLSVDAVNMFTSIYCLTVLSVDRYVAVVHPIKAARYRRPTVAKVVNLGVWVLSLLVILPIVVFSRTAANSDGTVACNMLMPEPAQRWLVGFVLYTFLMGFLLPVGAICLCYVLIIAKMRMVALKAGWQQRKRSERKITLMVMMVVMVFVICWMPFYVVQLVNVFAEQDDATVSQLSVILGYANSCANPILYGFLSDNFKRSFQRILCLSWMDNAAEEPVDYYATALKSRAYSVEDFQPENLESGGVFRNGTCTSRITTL

Chain of CXCR4 (P61073 whole entry): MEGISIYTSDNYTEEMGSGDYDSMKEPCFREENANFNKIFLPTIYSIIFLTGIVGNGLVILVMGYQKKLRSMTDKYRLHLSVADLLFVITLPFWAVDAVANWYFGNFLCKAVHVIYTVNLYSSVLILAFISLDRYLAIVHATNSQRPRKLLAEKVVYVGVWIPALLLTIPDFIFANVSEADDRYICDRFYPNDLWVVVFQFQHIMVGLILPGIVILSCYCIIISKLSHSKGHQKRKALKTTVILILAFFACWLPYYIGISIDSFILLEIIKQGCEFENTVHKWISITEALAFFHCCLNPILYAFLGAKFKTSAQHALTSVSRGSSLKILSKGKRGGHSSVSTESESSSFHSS
Chain of TSHR(L) (P16473 21-764 limits assumed): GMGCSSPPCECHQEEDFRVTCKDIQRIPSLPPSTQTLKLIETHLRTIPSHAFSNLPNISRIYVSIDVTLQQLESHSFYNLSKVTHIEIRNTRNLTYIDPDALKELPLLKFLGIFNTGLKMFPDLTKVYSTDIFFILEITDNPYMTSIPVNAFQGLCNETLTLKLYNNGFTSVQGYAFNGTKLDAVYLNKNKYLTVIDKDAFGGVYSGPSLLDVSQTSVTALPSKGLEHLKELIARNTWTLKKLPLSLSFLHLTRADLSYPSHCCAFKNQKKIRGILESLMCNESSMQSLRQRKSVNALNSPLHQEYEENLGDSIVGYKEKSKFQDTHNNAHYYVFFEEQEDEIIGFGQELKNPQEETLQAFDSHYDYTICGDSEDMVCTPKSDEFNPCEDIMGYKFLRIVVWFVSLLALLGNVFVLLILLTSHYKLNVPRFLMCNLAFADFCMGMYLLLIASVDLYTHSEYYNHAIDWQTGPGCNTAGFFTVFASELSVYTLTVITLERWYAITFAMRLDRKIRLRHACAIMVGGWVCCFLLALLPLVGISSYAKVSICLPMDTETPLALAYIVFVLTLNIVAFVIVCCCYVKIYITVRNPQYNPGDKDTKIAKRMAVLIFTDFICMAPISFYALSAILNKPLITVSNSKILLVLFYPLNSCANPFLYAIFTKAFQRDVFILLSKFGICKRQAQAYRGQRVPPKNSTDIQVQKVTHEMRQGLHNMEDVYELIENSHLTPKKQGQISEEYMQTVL
Chain of Cation-independent mannose-6-phosphate receptor (P11717 41-2491): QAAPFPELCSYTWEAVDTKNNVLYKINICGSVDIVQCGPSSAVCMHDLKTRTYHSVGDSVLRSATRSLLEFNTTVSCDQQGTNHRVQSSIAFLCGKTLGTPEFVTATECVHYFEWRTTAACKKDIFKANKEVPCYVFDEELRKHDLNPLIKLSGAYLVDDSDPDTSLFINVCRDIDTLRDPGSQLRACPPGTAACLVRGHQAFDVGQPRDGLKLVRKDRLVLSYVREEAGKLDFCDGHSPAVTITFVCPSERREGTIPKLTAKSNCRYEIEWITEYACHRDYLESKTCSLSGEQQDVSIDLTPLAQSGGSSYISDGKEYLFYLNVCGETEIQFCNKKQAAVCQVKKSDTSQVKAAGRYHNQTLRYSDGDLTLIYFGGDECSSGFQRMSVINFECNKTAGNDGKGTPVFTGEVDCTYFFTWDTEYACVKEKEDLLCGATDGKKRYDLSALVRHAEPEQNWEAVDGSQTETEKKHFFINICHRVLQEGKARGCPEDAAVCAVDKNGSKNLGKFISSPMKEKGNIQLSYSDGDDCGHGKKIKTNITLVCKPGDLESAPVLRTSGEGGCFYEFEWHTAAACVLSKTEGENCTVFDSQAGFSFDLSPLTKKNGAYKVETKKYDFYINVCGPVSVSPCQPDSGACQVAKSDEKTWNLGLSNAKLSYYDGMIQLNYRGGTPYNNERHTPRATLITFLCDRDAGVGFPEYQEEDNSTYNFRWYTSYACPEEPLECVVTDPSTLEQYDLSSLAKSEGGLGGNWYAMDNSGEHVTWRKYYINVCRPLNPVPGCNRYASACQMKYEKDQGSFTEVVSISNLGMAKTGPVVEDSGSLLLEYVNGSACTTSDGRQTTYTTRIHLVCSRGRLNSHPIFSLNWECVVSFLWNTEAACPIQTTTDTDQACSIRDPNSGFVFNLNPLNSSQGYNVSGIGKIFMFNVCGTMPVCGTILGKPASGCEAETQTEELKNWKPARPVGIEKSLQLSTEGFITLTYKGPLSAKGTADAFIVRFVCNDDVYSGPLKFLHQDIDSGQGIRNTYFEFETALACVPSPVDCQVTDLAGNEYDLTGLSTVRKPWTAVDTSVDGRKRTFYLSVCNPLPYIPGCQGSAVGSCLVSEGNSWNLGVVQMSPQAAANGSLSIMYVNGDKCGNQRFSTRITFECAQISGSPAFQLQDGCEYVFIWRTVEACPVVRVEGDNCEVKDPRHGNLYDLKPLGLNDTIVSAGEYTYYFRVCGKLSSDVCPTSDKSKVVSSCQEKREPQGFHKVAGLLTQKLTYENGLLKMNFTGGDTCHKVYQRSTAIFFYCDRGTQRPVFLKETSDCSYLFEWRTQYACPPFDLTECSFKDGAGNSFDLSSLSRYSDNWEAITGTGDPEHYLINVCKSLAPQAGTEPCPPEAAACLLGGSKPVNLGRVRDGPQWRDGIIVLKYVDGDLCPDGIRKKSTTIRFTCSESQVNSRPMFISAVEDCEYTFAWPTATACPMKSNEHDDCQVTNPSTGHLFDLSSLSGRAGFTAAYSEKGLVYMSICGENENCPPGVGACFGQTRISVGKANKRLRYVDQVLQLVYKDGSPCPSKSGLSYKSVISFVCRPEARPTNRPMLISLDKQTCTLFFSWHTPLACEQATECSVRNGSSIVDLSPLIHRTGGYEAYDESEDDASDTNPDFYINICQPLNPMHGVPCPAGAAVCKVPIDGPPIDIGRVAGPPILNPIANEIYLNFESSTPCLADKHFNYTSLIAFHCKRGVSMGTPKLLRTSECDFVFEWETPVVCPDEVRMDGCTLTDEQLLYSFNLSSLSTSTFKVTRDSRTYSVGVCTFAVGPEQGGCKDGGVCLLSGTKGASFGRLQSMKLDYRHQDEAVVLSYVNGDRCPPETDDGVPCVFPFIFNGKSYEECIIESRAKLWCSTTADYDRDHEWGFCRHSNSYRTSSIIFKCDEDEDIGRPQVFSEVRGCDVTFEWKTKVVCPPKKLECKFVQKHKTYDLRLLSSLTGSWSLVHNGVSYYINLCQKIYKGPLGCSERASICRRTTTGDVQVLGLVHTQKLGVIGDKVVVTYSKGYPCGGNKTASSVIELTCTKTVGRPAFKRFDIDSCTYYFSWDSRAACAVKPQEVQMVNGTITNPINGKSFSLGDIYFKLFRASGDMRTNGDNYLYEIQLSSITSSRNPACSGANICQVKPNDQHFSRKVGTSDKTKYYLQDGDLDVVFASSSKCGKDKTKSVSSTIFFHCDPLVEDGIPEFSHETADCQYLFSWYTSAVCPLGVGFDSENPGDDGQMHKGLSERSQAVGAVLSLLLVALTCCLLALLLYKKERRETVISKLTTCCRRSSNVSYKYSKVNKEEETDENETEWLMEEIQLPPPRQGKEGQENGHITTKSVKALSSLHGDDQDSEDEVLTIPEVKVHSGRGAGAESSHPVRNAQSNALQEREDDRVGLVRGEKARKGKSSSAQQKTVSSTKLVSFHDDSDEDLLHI
Chain of Tumor necrosis factor (P01375 whole entry): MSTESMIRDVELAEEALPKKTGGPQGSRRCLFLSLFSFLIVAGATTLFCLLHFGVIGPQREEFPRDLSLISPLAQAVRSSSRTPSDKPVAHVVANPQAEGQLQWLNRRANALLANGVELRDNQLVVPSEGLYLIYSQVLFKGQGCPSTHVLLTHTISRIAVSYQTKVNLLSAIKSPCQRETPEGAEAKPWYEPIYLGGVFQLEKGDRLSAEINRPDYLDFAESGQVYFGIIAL
Chain of Bone marrow stromal antigen 2 (Q10589 1-161 limits assumed): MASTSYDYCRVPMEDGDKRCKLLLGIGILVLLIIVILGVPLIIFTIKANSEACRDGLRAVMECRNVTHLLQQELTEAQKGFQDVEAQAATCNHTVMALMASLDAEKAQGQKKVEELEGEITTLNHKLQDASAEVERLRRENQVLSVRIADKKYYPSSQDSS

MLSTKKTKTHDHYPCGRMRDPGWHDWRACLTHQGIEEDEWPV [SG-3-0020, Bifidobacterium polypeptide]
human targets confirmed via CRISPR KO experiments [1]: CD2, BST2, and TNF | Enrichment ratio (Protein AMBP): 69.1 | number of CD4+ and/or CD8+ T cells having a CD25+/FoxP3− phenotype [2]: increase | Enrichment ratio [3]: 100.0 | Enrichment ratio [4]: 1.9 | Enrichment ratio (Prohibitin): 1.9 | Enrichment ratio (Tumor necrosis factor): 67.2 | Enrichment ratio [5]: 2.1 | Enrichment ratio [6]: 100.0 | Enrichment ratio [7]: 34.5 | Enrichment ratio (Teneurin-3): 3.4

B1: CXCL11 (ligand, UniProt O14625 22-94, looked up)
chain: FPMFKRGRCLCIGPGVKAVKVADIEKASIMYPSNNCDKIEVIITLKENKGQRCLNPKSKQARLIIKKVERKNF
binding result (CXCR3 [8]): binds

MKVRPSVKPMCEKCKIIRRKGRVMVICENPKHKQRQG [SG-3-00802]
% Agonist Activity, PathHunter β-arrestin (CCR9): 2% | % Antagonist Activity, PathHunter β-arrestin (CCR9): -48% | % Agonist Activity, PathHunter β-arrestin (TSHR(L)): 3% | % Antagonist Activity, PathHunter β-arrestin (TSHR(L)): 77% | % Agonist Activity, PathHunter β-arrestin (MRGPRX2): 66% | % Antagonist Activity, PathHunter β-arrestin (MRGPRX2): -9% | % Agonist Activity, PathHunter β-arrestin (CHRM5): 28% | % Antagonist Activity, PathHunter β-arrestin (CHRM5): 11% | % Agonist Activity, PathHunter β-arrestin (HCRTR2): 0% | % Antagonist Activity, PathHunter β-arrestin (HCRTR2): 67% | % Agonist Activity, PathHunter β-arrestin (CXCR4): -14% | % Antagonist Activity, PathHunter β-arrestin (CXCR4): 99% | % Agonist Activity, PathHunter β-arrestin (CXCR3 [9]): -4% | % Antagonist Activity, PathHunter β-arrestin (CXCR3 [9]): -32% | % Agonist Activity, PathHunter β-arrestin (SSTR1): -137% | % Antagonist Activity, PathHunter β-arrestin (SSTR1): 61%
